# Data reported in PMC5832863, “Solution structure and dynamics of anti-CRISPR AcrIIA4, the Cas9 inhibitor” (Scientific Reports, 2018).
# How the values were obtained:
# Conditions in all cases: both partners purified
# [1] = target: T1, Streptococcus pyogenes Cas9 (a.a. 1-1368) (S. pyogenes, UniProt Q99ZW2 1-1368); experiment: ITC; apo-SpyCas9 (no sgRNA): 50 uM SpyCas9 in the cell titrated with 500 uM AcrIIA4; 25 °C; 20 mM sodium phosphate, pH 7.4, 100 mM NaCl, 5 mM BME, 0.01% NaN3; one-site binding model
# T1 construct: Cas9 RNA-guided endonuclease of Streptococcus pyogenes, residues 1-1368, synthetic gene in pET28b; the two states are told apart by the assay; also called SpyCas9; apo-SpyCas9; source: E. coli BL21(DE3), purified (HisTrap HP, HiTrap SP, Superdex200)
# T1 sequence (Q99ZW2 whole entry, the tested form may be a part): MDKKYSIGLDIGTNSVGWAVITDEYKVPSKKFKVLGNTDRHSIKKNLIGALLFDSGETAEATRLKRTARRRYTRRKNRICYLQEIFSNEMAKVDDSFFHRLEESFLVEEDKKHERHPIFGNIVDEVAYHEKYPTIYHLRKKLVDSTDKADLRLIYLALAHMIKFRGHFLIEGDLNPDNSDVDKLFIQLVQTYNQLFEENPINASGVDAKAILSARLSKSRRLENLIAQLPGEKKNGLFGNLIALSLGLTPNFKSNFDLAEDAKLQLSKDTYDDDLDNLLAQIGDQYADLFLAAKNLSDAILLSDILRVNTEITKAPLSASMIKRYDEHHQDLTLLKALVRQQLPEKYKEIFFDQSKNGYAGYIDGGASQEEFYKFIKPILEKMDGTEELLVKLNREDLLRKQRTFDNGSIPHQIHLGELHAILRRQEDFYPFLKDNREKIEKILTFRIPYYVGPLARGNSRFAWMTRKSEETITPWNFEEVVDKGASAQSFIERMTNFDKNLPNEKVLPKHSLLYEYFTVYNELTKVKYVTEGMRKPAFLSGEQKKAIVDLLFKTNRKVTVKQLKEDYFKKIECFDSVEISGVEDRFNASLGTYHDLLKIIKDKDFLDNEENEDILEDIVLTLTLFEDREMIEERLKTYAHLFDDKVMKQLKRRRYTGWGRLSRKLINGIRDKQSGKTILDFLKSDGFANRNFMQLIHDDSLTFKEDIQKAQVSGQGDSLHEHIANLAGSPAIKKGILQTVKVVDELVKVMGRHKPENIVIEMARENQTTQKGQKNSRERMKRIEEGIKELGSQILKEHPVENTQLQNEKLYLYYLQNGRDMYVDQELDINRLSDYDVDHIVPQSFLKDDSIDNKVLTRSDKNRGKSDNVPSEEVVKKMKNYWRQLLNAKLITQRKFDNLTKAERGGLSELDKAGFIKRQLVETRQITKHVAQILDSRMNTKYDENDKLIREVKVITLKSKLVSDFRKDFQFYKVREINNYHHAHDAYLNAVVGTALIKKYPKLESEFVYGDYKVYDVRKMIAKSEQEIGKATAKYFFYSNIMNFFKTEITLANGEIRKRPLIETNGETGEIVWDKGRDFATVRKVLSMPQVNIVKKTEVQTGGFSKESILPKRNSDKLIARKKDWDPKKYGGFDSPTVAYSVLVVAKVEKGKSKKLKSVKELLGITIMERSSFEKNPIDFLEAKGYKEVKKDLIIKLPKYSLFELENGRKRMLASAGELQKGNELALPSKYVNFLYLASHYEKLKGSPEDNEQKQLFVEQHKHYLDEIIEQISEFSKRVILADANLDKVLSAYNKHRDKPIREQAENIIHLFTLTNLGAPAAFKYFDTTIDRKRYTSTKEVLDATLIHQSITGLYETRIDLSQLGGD
# [2] = target: T1, Streptococcus pyogenes Cas9 (a.a. …); experiment: ITC; sgRNA-bound SpyCas9 titrated with AcrIIA4; 25 °C; one-site binding model
# [3] = target: T1, Streptococcus pyogenes Cas9 (a.a. …); experiment: ITC; apo-SpyCas9 (no sgRNA): 50 uM SpyCas9 in the cell titrated with 500 uM AcrIIA4; 25 °C; 20 mM sodium phosphate, pH 7.4, 100 mM NaCl, 5 mM BME, 0.01% NaN3; one-site binding model; remark: listed apart in the source
binder,measurement,setting,value
"Listeria monocytogenes anti-CRISPR protein AcrIIA4 (a.a. 1-87) (natural protein, Listeria monocytogenes (prophage), UniProt A0A247D711 1-87, looked up, AcrIIA4, anti-CRISPR protein encoded by Listeria monocytogenes prophages, residues 1-87, synthetic gene; Cloned into a modified pBT7-N-His vector; also called 15N-AcrIIA4; 13C,15N-AcrIIA4; source: E. coli BL21star(DE3), purified (HisTrap, TEV cleavage, Superdex 75, MonoQ); not shown: His6, N-terminal, cleaved) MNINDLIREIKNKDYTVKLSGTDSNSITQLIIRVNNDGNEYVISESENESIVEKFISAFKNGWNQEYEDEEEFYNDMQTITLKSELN",stoichiometry N,[1],1
same,Kd,[2],0.6 ± 0.1 nM
same,dH,[2],-10.3 ± 0.1 kcal/mol
same,Kd,[3],4.8 ± 0.15 µM
same,dH,[3],-11.5 ± 0.7 kcal/mol
